Data from patent US20240325557A1 (INNATE PHARMA, published 2024).

T1: huNectin4-C1C2-V5 (C1C2 construct, lacking the Ig-like V domain) (human, UniProt Q96NY8 148-510)
T1 construct: Expressed on CHO cells; also called Hu-Nectin4 IgC1C2-V5; Nectin4-C1C2-V5 sorted cells
T1 sequence: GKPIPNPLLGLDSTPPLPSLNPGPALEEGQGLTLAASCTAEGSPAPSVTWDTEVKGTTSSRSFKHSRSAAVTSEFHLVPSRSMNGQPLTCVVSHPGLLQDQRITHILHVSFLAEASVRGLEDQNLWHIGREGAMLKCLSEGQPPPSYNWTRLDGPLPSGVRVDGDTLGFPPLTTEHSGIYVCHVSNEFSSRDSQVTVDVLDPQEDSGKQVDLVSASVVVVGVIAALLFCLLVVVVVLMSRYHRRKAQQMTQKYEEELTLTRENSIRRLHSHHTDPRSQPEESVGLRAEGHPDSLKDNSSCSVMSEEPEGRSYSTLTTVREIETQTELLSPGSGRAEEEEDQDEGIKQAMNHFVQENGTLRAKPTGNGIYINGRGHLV

T2: human PVR on CHO cells (human, UniProt P15151 28-417)
T2 construct: also called PVR (Nectin-5)
T2 sequence: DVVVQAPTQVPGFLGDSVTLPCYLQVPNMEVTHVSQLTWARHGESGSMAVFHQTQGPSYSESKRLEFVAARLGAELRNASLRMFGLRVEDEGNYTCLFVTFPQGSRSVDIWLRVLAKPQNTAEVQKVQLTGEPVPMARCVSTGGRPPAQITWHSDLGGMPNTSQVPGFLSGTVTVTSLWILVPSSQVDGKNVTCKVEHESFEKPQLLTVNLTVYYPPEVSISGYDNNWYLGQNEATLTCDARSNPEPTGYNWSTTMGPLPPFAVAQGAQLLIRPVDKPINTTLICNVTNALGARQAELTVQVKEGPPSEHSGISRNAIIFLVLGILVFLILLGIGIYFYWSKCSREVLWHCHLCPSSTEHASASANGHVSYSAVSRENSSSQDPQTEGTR

T3: human Nectin 1 on CHO cells (human, UniProt Q15223 31-517)
T3 sequence: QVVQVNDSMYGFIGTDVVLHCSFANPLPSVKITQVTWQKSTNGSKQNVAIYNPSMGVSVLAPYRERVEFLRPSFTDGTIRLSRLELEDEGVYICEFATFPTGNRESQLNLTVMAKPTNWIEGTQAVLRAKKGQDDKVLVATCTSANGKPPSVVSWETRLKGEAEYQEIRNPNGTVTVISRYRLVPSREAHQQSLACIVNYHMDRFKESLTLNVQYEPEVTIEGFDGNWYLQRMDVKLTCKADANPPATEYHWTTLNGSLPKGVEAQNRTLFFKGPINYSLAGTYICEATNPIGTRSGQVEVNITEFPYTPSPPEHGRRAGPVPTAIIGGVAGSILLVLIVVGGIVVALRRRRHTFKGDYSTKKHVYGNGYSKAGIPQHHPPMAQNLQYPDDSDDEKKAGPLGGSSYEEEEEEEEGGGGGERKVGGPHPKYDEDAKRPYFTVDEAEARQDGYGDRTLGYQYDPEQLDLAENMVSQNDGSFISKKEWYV

T4: human Nectin 2 on CHO cells (human, UniProt Q92692 32-538)
T4 sequence: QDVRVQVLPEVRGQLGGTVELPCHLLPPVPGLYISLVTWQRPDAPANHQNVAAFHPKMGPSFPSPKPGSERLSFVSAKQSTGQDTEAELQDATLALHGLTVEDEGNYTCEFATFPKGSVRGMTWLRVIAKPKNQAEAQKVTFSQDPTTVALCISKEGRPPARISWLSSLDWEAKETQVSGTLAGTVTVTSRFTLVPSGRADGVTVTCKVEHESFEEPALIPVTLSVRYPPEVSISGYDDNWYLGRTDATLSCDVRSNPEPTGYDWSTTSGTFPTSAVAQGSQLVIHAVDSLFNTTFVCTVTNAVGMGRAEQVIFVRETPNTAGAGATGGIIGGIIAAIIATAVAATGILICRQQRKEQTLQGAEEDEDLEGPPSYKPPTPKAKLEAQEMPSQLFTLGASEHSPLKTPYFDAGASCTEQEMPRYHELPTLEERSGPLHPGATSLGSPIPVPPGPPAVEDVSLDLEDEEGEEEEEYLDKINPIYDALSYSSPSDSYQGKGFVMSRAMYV

T5: human Nectin-4 Mutant 3 (human, UniProt Q96NY8 32-510)
T5 construct: Expressed on transfected HEK-293T cells; also called A76S/Q77R/E78A/S91N
T5 chain: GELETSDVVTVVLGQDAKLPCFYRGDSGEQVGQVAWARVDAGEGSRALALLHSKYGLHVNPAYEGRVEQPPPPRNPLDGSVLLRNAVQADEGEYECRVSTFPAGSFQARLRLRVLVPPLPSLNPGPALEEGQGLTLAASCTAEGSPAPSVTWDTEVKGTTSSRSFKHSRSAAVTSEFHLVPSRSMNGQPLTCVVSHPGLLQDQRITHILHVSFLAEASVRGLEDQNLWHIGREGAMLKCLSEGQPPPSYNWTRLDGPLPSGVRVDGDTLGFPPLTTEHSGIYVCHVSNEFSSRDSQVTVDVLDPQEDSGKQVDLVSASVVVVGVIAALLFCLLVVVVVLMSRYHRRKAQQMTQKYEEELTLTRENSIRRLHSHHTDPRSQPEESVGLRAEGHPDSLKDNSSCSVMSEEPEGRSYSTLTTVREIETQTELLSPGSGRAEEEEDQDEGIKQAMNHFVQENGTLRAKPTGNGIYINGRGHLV

T6: wild-type human Nectin-4 on the CHO huNectin4 Cl.3C8 cell line (human, UniProt Q96NY8 32-510)
T6 construct: also called whole Nectin-4 protein; huNectin4 CI.3C8
T6 sequence: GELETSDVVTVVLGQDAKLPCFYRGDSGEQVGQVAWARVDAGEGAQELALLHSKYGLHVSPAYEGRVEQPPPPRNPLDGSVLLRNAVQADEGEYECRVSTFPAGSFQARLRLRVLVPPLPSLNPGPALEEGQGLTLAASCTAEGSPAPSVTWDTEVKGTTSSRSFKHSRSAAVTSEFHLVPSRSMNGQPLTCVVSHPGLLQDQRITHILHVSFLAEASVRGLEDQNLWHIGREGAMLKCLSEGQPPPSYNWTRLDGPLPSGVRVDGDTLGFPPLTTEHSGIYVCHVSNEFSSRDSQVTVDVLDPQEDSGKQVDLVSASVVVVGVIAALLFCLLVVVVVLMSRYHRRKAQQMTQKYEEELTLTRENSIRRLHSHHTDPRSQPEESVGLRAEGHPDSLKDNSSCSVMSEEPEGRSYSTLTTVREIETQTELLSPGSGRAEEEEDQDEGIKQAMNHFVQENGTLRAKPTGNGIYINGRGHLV

T7: monomeric huNectin4-his-BirA protein (human, UniProt Q96NY8 32-349)
T7 construct: also called Human Nectin4-His-BirA; huNectin4-BirA
T7 sequence: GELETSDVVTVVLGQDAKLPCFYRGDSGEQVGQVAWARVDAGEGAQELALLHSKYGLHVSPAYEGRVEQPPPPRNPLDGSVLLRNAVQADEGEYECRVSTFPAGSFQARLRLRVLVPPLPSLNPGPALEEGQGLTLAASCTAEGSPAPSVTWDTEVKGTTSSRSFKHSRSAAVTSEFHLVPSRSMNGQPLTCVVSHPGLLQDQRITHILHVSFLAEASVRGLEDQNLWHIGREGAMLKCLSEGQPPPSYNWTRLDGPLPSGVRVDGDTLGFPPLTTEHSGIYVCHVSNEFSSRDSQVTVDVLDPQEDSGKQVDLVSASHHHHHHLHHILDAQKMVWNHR

T8: human Nectin-4 Mutant 1 (human, UniProt Q96NY8 32-510)
T8 construct: Expressed on transfected HEK-293T cells; also called S58P/G59D/Q61A/N106D/P107A
T8 chain: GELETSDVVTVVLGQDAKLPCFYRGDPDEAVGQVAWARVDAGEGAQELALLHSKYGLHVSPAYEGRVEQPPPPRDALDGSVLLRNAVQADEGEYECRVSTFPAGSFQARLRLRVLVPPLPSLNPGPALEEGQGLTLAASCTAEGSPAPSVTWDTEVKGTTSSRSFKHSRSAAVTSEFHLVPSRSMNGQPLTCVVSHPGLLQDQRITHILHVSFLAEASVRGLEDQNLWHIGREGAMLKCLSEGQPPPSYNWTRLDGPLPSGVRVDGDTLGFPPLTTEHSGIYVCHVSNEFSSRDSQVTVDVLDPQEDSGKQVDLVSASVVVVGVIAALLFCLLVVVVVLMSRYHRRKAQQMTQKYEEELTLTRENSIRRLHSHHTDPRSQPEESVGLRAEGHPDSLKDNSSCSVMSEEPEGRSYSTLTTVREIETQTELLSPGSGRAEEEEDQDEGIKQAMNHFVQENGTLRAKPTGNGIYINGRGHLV


Legend:
[1] = molecular target: T1, huNectin4-C1C2-V5 (C1C2 construct, …); assay: flow cytometry on Nectin4-C1C2-V5 sorted cells
human PVR on CHO cells = molecular target: T2, human PVR on CHO cells; assay: flow cytometry on CHO cells expressing human PVR
Experimental: (§1) Anti-Nectin-4 antibodies were tested by flow cytometry for binding to different CHO cell lines made to express respectively the human Nectin 1, Nectin 2, Nectin 3 and PVR proteins. The expression of each cell lines was controlled and validated with known respectively the anti-human Nectin1, anti-human Nectin2, anti-human Nectin3 and anti-human PVR antibodies. The mature amino acid sequence of the proteins expressed by the cells were as follows:
(§2) Nectin 1, Nectin 2, Nectin 3 and PVR proteins as in Example 12. […] Epitope mapping was carried out by assessing competition for binding to Nectin-4 by SPR as in Example 14.

[2] = molecular target: T3, human Nectin 1 on CHO cells; assay: flow cytometry on CHO cells expressing human Nectin 1
Experimental: as §1, §2

[3] = molecular target: T4, human Nectin 2 on CHO cells; assay: flow cytometry on CHO cells expressing human Nectin 2
Experimental: as §1, §2

human Nectin-4 Mutant 3 = molecular target: T5, human Nectin-4 Mutant 3; assay: binding to HEK-293T cells transfected with the Nectin-4 mutant
[4] = molecular target: T6, wild-type human Nectin-4 on the CHO …; assay: flow cytometry on wild-type human Nectin-4 cell line
[5] = molecular target: T1, huNectin4-C1C2-V5 (C1C2 construct, …); assay: flow cytometry on huNectin4-C1C2-V5 CHO cells
Experimental: The characterization of the binding of the antibodies on Nectin-4 domains was performed by flow cytometry using cells made to express the wild-type human Nectin-4 protein and cells made to express a modified Nectin-4 having the Ig-like C₂ type 1 and the Ig-like C₂ type 2 domains and lacking the Ig-like V domain (the C1C2 construct). The latter protein additionally bears a V5 tag for flow cytometry cell sorting, and cells were used as Nectin4-C1C2-V5 sorted cells.

[6] = molecular target: T7, monomeric huNectin4-his-BirA protein; assay: SPR (Biacore T200), antibody captured on Protein A, monomeric huNectin4-his-BirA injected
Experimental: Antibodies were tested for binding affinity to the wild-type human Nectin-4 protein by SPR (Surface Plasmon Resonance) methods. Measurements were performed on a Biacore T200 apparatus (Biacore GE Healthcare) at 25° C. Sensorgrams were analyzed with Biacore T100 Evaluation software. A CMR Sensor Chip with immobilized Protein A at about 600 RU was used. Anti-Nectin-4 antibodies were captured onto the Protein-A chip (antibodies diluted to 1 μg/ml in HBS-EP+1× buffer and injected over 120s at 40 μL/min). […] The chip was regenerated with NaOh 10 mM 2× for 30s at 40 μl/min. The sensorgram sets were fitted using the 1:1 kinetic binding model or two state reaction model, as a function of the profile of the curves.

human Nectin-4 Mutant 1 = molecular target: T8, human Nectin-4 Mutant 1; assay: binding to HEK-293T cells transfected with the Nectin-4 mutant

Row | Binder | binding result [1] | binding result (human PVR on CHO cells) | binding result [2] | binding result [3] | binding result (human Nectin-4 Mutant 3) | binding result [4] | binding result [5] | Kd [6] | koff [6] | kon [6] | binding result (human Nectin-4 Mutant 1)
1 | antibody 6C11B (antibody, human IgG1, V domains shown, also called 6CB11; CHG1-M-4N4-6C11B) VH: EVQLQQSGPELVKPGASVKISCKTSGYTFTEYTIHWVKQNHGKSLEWIGRINPKNGDIIHNQNFMGKATLTVDKSSSTAYMELRSLTSEDSAVCYCARSGYGSSYGFAYWGQGTLVTVSA VL: DIVMTQSPTSLVVSLGQRATISCRASQSVTTPRYSYMHWYQQKPGQPPKLLIKYASNLESGVPARFSGSGSGTDFTLNIHPVEEEDTATYYCQHSWEIPYTFGGGTKLEIK | binds | no binding | no binding | no binding | no binding | binds |  |  |  |  | 
2 | antibody N41 (antibody, V domains shown, Comparator anti-Nectin-4 antibody) VH: QVQLKQSGPGLVQPSQSLSITCTVSGFSLTNYGVHWVRQSPGKGLEWLGVIWSGGSTDYNAAFISRLSISKDTSKSQVFFKMNSLQADDTAIYYCARELIHAMDNWGQGTSVTVSS VL: DIQMTQSPASLSVSVGETVTITCRASENIYSNLAWYQQKQGNSPQLLVFAATNLADGVPSRFSGSGSGTQYSLKINSLQSEDFGTYYCQHFWGTPTFGGGTKLEIK |  |  |  |  |  |  | no binding | 1.5 nM | 0.00087 s⁻¹ | 580000 M⁻¹ s⁻¹ | no binding
